Numbering of substitutions follows the chain as printed. Values belong to the binder of their own block, whether it stands above or below them.
What was measured:
human IL-2Rβ [1] = target: T1, human IL-2Rβ (human, UniProt P14784 27-240, limits assumed); assay: P.E. binding ELISA on coated protein
T1 construct: Recombinant protein, coated (ELISA) or immobilised on CM5 (SPR); also called hu IL-2R; interleukin 2 receptor β-chain
T1 sequence: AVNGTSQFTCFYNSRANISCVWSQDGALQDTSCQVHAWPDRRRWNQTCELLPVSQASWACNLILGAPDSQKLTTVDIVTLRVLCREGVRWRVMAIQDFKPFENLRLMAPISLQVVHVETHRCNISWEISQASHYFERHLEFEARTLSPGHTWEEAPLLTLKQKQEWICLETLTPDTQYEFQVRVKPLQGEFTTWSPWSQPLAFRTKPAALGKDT
Experimental: In a binding ELISA, human or mouse IL-2Rα, IL-2Rβ and IL-2Rγ proteins were coated directly on maxisorp microtiter plates overnight at 4° C. Free binding sites were blocked using 4% Marvel in PBS for 1 hour. Next, 1:5 dilution of P.E. in 1% Marvel/PBS were added to wells and incubated for 1 hour. […] Binding specificity was determined based on O.D. at 450 nm values compared to negative controls.

human IL-2Rβ [2] = target: T1, human IL-2Rβ; assay: SPR (Biacore), P.E. off-rate ranking

B1: FJ1427_P035MP03G05 (VHH)
VHH: EVQLVESGGGLVQIGGSLRLSCAASGRTFSSITMAYFRQVPGKEREWVAGINFSGTRTFYADSVKGRFLISRDDAKSTMYLQMNSLKPEDTAVYYCAASPRGFYGPGNALYDYWGQGTQVTVSS
notes: soluble VHH in periplasmic extract; also called clone nr
- P.E. binding ELISA OD (human IL-2Rβ [1]): 0.914 OD450 nm
- koff (human IL-2Rβ [2]): 0.000351 s⁻¹

B3: FJ1427_P035MP03D10 (VHH)
VHH: QVQLQESGGGLVQAGDSLRLSCVVSGRDFSGYTMGWFRQPPGKEREFVALITWSTGRVHYTDSVEGRFTISRDSAKNTVYLQMNSLKPEDTAVYTCAAGRVGYTTNLHSYDYSGQGTQVIVSA
notes: as for B1
- P.E. binding ELISA OD (human IL-2Rβ [1]): 0.118 OD450 nm
- koff (human IL-2Rβ [2]): 0.0012 s⁻¹

B5: FJ1427_P035MP06H01 (VHH)
VHH: EVQLVESGGGLVQAGGSLRLSCAVSGDVFVRYTMAWFRQAPGKEREFVASVTDSGRTTDYVHSVKGRFTVSRDNAKNTVYLQMNNLKPEDTAVYYCAANTDYFQIKSLDANTWGQGTQVTVSS
notes: as for B1
- P.E. binding ELISA OD (human IL-2Rβ [1]): 0.72 OD450 nm
- koff (human IL-2Rβ [2]): 0.00101 s⁻¹

B8: FJ1427_P035MP03G08 (VHH)
VHH: B5 VHH with E1Q, S21A, V24L, E44G, H62A, K65Q, A75N, N85S, K106R, A110R
notes: as for B1
- P.E. binding ELISA OD (human IL-2Rβ [1]): 1.26 OD450 nm
- koff (human IL-2Rβ [2]): 0.00055 s⁻¹

B11: FJ1427 P035MP06C02 (VHH)
VHH: B5 VHH with E1Q, A23V, S50V, D59E, H62D, K106R, L108V, A110N, T112A
notes: as for B1
- P.E. binding ELISA OD (human IL-2Rβ [1]): 0.799 OD450 nm
- koff (human IL-2Rβ [2]): 0.000455 s⁻¹

B14: FJ1427 P035MP06D01 (VHH)
VHH: B5 VHH with E1Q, G10R, V24A, D59E, H62D, V79A, K106R, D109N, A110L
notes: as for B1
- P.E. binding ELISA OD (human IL-2Rβ [1]): 1.1 OD450 nm
- koff (human IL-2Rβ [2]): 0.00031 s⁻¹

B16: FJ1427_P035MP03H07 (VHH)
VHH: B5 VHH with A23V, S50A, D59E, H62D, K106R, L108V, A110N, T112A
notes: as for B1
- P.E. binding ELISA OD (human IL-2Rβ [1]): 0.649 OD450 nm
- koff (human IL-2Rβ [2]): 0.00172 s⁻¹

The remaining lines, values ahead:

- P.E. binding ELISA OD (human IL-2Rβ [1]): 0.26 OD450 nm
- koff (human IL-2Rβ [2]): 0.00165 s⁻¹
B2: FJ1427_P035MP03G10 (VHH)
VHH: QVQLVESGGGLVQAGGSLRLSCAASGRSYAMGWFRQAPGKEREFVAAISWSASSTYYSESVKGRFTISRENAKNTVYLQMNSLKPEDTAVYYCAVRASPFVAGSYDPSDDPADYGSWGQGTQVIVSS
notes: as for B1

- P.E. binding ELISA OD (human IL-2Rβ [1]): 0.202 OD450 nm
- koff (human IL-2Rβ [2]): 0.00125 s⁻¹
B4: FJ1427 P035MP03B12 (VHH)
VHH: B5 VHH with V24A, S50A, T58A, H62D, K106R, A110R
notes: as for B1

- P.E. binding ELISA OD (human IL-2Rβ [1]): 0.148 OD450 nm
- koff (human IL-2Rβ [2]): 0.00149 s⁻¹
B6: FJ1427_P035MP06E02 (VHH)
VHH: B5 VHH with E1Q, S50T, D59E, H62D, Q104R, K106R
notes: as for B1

- P.E. binding ELISA OD (human IL-2Rβ [1]): 0.972 OD450 nm
- koff (human IL-2Rβ [2]): 0.000757 s⁻¹
B7: FJ1427 P035MP03C08 (VHH)
VHH: B5 VHH with S21A, V24L, H62A, K65Q, A75N, N85S, K106R, A110R
notes: as for B1

- P.E. binding ELISA OD (human IL-2Rβ [1]): 0.624 OD450 nm
- koff (human IL-2Rβ [2]): 0.00148 s⁻¹
B9: FJ1427_P035MP03E11 (VHH)
VHH: B5 VHH with A23V, S50A, D59E, H62D, K87E, K106R, L108V, A110N, T112A
notes: as for B1

- P.E. binding ELISA OD (human IL-2Rβ [1]): 0.38 OD450 nm
- koff (human IL-2Rβ [2]): 0.00122 s⁻¹
B10: FJ1427_P035MP03G11 (VHH)
VHH: B5 VHH with V24A, H62D, K106R, D109E, A110F
notes: as for B1

- P.E. binding ELISA OD (human IL-2Rβ [1]): 0.313 OD450 nm
- koff (human IL-2Rβ [2]): 0.00161 s⁻¹
B12: FJ1427 P035MP03D09 (VHH)
VHH: B5 VHH with E1Q
notes: soluble VHH in periplasmic extract; also called clone nr; 260

- P.E. binding ELISA OD (human IL-2Rβ [1]): 0.467 OD450 nm
- koff (human IL-2Rβ [2]): 0.00202 s⁻¹
B13: FJ1427_P035MP03B09 (VHH)
VHH: B5 VHH with E1Q, A23V, A49T, V51I, D59E, H62D, Q104R, K106R
notes: as for B1

- P.E. binding ELISA OD (human IL-2Rβ [1]): 0.209 OD450 nm
- koff (human IL-2Rβ [2]): 0.00263 s⁻¹
B15: FJ1427 P035MP03D07 (VHH)
VHH: B5 VHH with V24A, V61G, H62D, K106R
notes: as for B1

- P.E. binding ELISA OD (human IL-2Rβ [1]): 0.435 OD450 nm
- koff (human IL-2Rβ [2]): 0.000853 s⁻¹
B17: FJ1427_P035MP06B02 (VHH)
VHH: B5 VHH with E1Q, A23V, S50A, D59E, H62D, K106R, L108V, A110N, T112A
notes: soluble VHH in periplasmic extract; also called clone nr; 490

— patent US20240409645A1 (DUALYX, published 2024)
